Consider nine substances from patent US8501487B2, “Composition for use as a peptide retention standard and a method of predicting peptide hydrophobicity in liquid chromatography” (University of Manitoba, priority 2008, dated 2013).

A short description of series [1]: Isocratic RP HPLC: log k vs φ plots, UHI (acetonitrile concentration at k=10) and S slope. In kind it is physicochemical. As to conditions: for S value (slope in LSS equation): isocratic, TFA, pH 2; for UHI 100 Å C18 − TFA / UHI 100 Å C18 − FA / UHI 300 Å C18 − TFA / UHI 100 Å C18 − pH 10: acetonitrile concentration (ACN %) at k=10, isocratic, in %; for UHI 100 Å C18 − TFA: 0.1% TFA; for UHI 100 Å C18 − TFA / UHI 100 Å C18 − FA / UHI 300 Å C18 − TFA: ~25° C.; for UHI 100 Å C18 − FA: 0.1% formic acid; for UHI 300 Å C18 − TFA: Vydac 218 TP C18, 0.1% TFA; for UHI 100 Å C18 − pH 10: XTerra C18, 20 mM ammonium formate pH 10, ~25° C. The text has this: Accordingly, in a further embodiment of the present disclosure there is included, a method of predicting hydrophobicity of a peptide: • (a) measuring retention time for each peptide of a standard peptide mixture at three or more different concentrations of acetonitrile under isocratic conditions; • (b) calculating a retention coefficient k for each peptide in the mixture and at each concentration of acetonitrile using equation (2) k=(tR−tO)/TOc (2) • wherein • tR is the retention time, • tO is system dead time, and • TOc is column dead time; • (c) for each peptide in the mixture, plotting log k vs φ, wherein φ is the acetonitrile volume fraction; • (d) for each peptide in the mixture, determining the value of φ when log k=1 and converting this to acetonitrile concentration to provide a universal hydrophobicity index (UHI); • (e) plotting retention times of each peptide vs its UHI; • (f) determining the retention time of an unknown peptide under the isocratic liquid chromatographic conditions; and • (g) determining from the plot in (e) the value of UHI that corresponds to the retention time of the unknown peptide, • wherein the UHI correlates to the hydrophobicity of the unknown peptide.
Two chromatographic setups: micro-flow 3 μl/min and “semi-micro” at 150 μl/min were employed utilizing a micro-Agilent 1100 Series system (Agilent Technologies, Wilmington, Del.) with two column sizes: 300 μm×150 mm (micro) and 1 mm×100 mm (semi-micro). The three stationary phases studied included: Vydac 218 TP C18, 300 Å pore size, 5 μm (Grace Vydac, Hesperia, Calif.); Luna C18(2) 100 Å, 5 μm (Phenomenex, Torrance, Calif.) and XTerra C18, 120 Å, 5 μm (Waters, Milford, Mass.). Three different ion-pairing systems with linear water-acetonitrile gradients were employed: 0.1% trifluoroacetic acid (TFA) in both eluents A and B (Vydac and Luna), 0.1% formic acid (FA, Luna) and 20 mM ammonium formate pH 10 (XTerra). This provided us with four different mobile/stationary phase combinations corresponding to four versions of SSRCalc model: 100 and 300 Å for TFA, 100 Å with FA and 100 Å at pH 10. Gradient separations of the 6-peptide mixture in “semi-micro” flow mode were performed in all four systems using 0.5, 1, 2 and 4% acetonitrile per minute gradient slopes.
Stock solutions of the 6 custom peptides (˜1 mg/ml) were prepared by dissolving in 1 ml of 0.1% TFA in water (20% acetonitrile for peptides #5 and 6). Ten microliters sample injection was applied for “semi-micro” conditions in both isocratic and gradient modes. Individual peptides, their mixture and the S1-S5 retention standard were diluted to provide ˜0.5-1 μg injection of each component. 214 nm UV detection was used. All chromatographic experiments were conducted at room temperature, ˜25° C. Dead volume of the column and connecting tubings was measured using injection of non-retained compound (water) and measuring elution time of negative peak. Retention coefficients for isocratic elution were calculated using the formula: k=(tR−t0)/t0c; where tR is retention time, t0 and t0c—system (column and tubings) and column dead time.
Since accurate measurement of ACN % hydrophobicity using gradient elution is problematic it is proposed to use isocratic conditions for this purpose. […] This confirms once again that peptides elute from reversed-phase sorbents within a very narrow range of acetonitrile concentration. It is clear as well that the slope of these dependencies decrease systematically as peptide hydrophobicity increase. This is the reason for narrowing ACN percentage scale for shallow gradients in FIG. 2.
It is proposed to use acetonitrile concentration at which the capacity factor of any given peptide is equal to 10 (at room temperature ˜25° C.) as a measure of peptide hydrophobicity. This value is referred to herein as peptide Universal Hydrophobicity Index (UHI), since it depends only on type of the sorbent and ion-pairing modifier. […]

For series [2] the following is noted: rhGH tryptic digest, literature data; cited from earlier work.
The nature of series [3]: Gradient RP HPLC: acetonitrile concentration at elution and ACN % range covered. It counts as physicochemical. As to conditions: gradient conditions (FIG. 2c), Luna C18(2), 0.1% TFA, gradient delay time 4.3 min taken into account. The source says:
A one percent per minute acetonitrile gradient starting from 0% was used for all separations. The retention time difference between first and last peaks on chromatograms gives direct indication of ACN % scale covered. […] Such wide coverage is very important, especially for nano- and micro-flow proteomics LC applications. While normal-flow gradient system technology is well established, in nano scale LC gradient reproducibility is harder to achieve. The correct retention time distribution of the standard peptides of the present disclosure confirms the proper development of the gradient, especially at the beginning of the chromatogram. Also note the uniform distribution of the six peaks of the peptide composition of the present disclosure throughout the chromatogram; such uniformity is rarely observed in standard peptide mixtures derived from protein digests. […]
Stock solutions of the 6 custom peptides (˜1 mg/ml) were prepared by dissolving in 1 ml of 0.1% TFA in water (20% acetonitrile for peptides #5 and 6). […] Dead volume of the column and connecting tubings was measured using injection of non-retained compound (water) and measuring elution time of negative peak. Retention coefficients for isocratic elution were calculated using the formula: k=(tR−t0)/t0c; where tR is retention time, t0 and t0c—system (column and tubings) and column dead time. […]

Where two headings read alike, the source gives them in different places.

As for “ALILTLVS [peptide purchased from Bachem, singly charged at pH 2, reference compound]”, in series [1] (Luna C18(2)), the “S value (slope in LSS equation)” value worked out at 13.47.
Regarding “ISLLLIQSWLEPVQFLR [Peptide T9, tryptic digest product of recombinant human growth hormone]”, the “S value (slope in LSS equation)” value in series [2] is on record as 18.5.
On to “LGGGGGGDFR [custom synthesized standard peptide]”, for which, in series [1] (Luna C18(2)), the “UHI 100 Å C18 − TFA” value was 10.74 and the “UHI 100 Å C18 − FA” value is 4.58. In series [1], the “UHI 300 Å C18 − TFA” value was determined as 8.40 and the “UHI 100 Å C18 − pH 10” value came to 6.80.
The like results for “LGGGGGGDGSR [custom synthesized standard peptide]” were, in that order, 3.97, less than 0, 1.89 and 1.14.
Turning to “LLGGGGDFR [custom synthesized standard peptide]”, in series [1] (Luna C18(2)), the “UHI 100 Å C18 − TFA” value is 15.53 and the “UHI 100 Å C18 − FA” value is on record as 8.55. Moreover, in series [1], the “UHI 300 Å C18 − TFA” value is recorded as 13.35 and the “UHI 100 Å C18 − pH 10” value is listed as 13.65.
For “LLLGGDFR [custom synthesized standard peptide]”, in series [1] (Luna C18(2)), the “UHI 100 Å C18 − TFA” value came to 20.72 and the “UHI 100 Å C18 − FA” value was 13.08. In series [1], the “UHI 300 Å C18 − TFA” value turned out to be 18.90 and the “UHI 100 Å C18 − pH 10” value is 18.29.
For “LLLLDFR [custom synthesized standard peptide]”, in series [1] (Luna C18(2)), the “UHI 100 Å C18 − TFA” value worked out at 26.07, the “UHI 100 Å C18 − FA” value was 18.26 and the “S value (slope in LSS equation)” value is given as 14.69. In addition, in series [1], the “UHI 300 Å C18 − TFA” value is given as 24.78 and the “UHI 100 Å C18 − pH 10” value stood at 24.18. For the same substance, the “acetonitrile concentration at k=10” value in series [1] (isocratic conditions, Luna C18(2), TFA (FIG. 3)) is 26.1%. Also, the “concentration of acetonitrile required for elution” value in series [3] came to 29.6%.
With “LLLLLDFR [custom synthesized standard peptide]”, in series [1] (Luna C18(2)), the “UHI 100 Å C18 − TFA” value came out at 29.58 and the “UHI 100 Å C18 − FA” value was found to be 21.59. In series [1], the “UHI 300 Å C18 − TFA” value is 28.60 and the “UHI 100 Å C18 − pH 10” value was found to be 28.94.
Consider “QTYSK [Peptide T14, tryptic digest product of recombinant human growth hormone]”, for which the “S value (slope in LSS equation)” value in series [2] was 24.3.
